From patent US20180066035A1 (published 2018)

Legend:
[1] = target: T1, human ICAM-1 on cells (HeLa, 8505C, 8505C/LPS, HMEC-1, T cells) (human, UniProt P05362 28-532); assay: estimated from titrated R6.5 antibody binding to HeLa cells
T1 construct: whole, on cells

[2] = target: T2, human ICAM-1 (immobilized, SPR) (human, UniProt P05362 28-480, limits assumed); assay: SPR, I domain over immobilized human ICAM-1
T2 construct: Form immobilized on the SPR chip is not described; also called Intercellular adhesion molecule-1; CD54
T2 sequence (P05362 28-480 limits assumed): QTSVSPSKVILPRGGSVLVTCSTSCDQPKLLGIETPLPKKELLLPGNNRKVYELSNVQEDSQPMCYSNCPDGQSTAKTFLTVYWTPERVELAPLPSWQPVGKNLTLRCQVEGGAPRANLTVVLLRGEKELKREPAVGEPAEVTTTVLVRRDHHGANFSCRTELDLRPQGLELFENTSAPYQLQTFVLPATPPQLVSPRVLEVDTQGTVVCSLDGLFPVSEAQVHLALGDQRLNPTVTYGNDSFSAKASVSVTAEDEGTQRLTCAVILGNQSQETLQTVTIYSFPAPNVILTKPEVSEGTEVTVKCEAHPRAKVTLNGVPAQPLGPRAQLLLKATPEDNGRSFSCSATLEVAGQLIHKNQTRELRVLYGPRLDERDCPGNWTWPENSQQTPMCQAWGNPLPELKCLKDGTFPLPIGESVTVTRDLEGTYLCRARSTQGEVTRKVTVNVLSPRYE

[3] = target: T3, recombinant human ICAM-1 fused to human Fcγ (R&D Systems) (human, UniProt P05362 28-480); assay: estimated from flow cytometry MFI of ICAM-1-Fc binding to yeast cells expressing the I domain variant
T3 construct: Bought reagent; also called ICAM-1-Fc; human ICAM-1-Fcγ; not shown: human Fcγ
T3 sequence (P05362 28-480 limits assumed): as above

[4] = target: T2, human ICAM-1 (immobilized, SPR); assay: SPR
murine ICAM-1 (SPR) = murine ICAM-1 (SPR) (murine, UniProt P13597 28-485, limits assumed); assay: SPR, F265S/F292G flowed over murine ICAM-1 (FIG. 1C)
Chain of murine ICAM-1 (SPR) (P13597 28-485 limits assumed): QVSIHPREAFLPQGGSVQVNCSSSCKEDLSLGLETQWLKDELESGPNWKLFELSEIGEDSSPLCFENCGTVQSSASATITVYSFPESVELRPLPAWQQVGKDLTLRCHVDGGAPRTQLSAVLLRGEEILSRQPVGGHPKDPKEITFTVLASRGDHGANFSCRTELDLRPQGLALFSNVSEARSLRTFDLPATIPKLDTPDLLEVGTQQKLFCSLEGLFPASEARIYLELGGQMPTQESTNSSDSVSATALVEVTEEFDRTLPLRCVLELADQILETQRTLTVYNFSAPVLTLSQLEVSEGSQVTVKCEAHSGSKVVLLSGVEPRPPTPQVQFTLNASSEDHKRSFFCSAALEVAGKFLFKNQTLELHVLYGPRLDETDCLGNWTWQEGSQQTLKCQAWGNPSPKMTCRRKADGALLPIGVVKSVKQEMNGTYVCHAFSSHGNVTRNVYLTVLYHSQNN

[5] = target: human ICAM-1 on cells (HeLa, 8505C, 8505C/LPS, HMEC-1, T cells) (human) (UniProt P05362); assay: cell-based or functional assay
Chain of human ICAM-1 on cells (HeLa, 8505C, 8505C/LPS, HMEC-1, T cells) (human) (P05362 28-532): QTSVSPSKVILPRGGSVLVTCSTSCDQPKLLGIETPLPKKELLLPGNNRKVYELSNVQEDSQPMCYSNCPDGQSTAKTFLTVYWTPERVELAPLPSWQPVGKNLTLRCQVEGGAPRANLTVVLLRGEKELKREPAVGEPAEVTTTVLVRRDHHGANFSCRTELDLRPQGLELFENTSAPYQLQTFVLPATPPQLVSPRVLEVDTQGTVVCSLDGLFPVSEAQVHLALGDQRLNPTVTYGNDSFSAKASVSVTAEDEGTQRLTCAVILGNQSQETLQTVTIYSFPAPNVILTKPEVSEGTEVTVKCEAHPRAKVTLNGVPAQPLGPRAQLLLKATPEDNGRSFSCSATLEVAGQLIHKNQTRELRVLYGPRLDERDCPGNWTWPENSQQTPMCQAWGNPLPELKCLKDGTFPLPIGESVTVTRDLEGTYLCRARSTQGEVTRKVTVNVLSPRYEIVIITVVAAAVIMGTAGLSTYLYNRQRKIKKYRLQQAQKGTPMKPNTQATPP

[6] = target: T2, human ICAM-1 (immobilized, SPR); assay: comparison of the Table 1 affinities
[7] = target: murine ICAM-1 on bEnd.3 cells (mouse) (UniProt P13597); assay: cell-based or functional assay
Chain of murine ICAM-1 on bEnd.3 cells (mouse) (P13597 28-537): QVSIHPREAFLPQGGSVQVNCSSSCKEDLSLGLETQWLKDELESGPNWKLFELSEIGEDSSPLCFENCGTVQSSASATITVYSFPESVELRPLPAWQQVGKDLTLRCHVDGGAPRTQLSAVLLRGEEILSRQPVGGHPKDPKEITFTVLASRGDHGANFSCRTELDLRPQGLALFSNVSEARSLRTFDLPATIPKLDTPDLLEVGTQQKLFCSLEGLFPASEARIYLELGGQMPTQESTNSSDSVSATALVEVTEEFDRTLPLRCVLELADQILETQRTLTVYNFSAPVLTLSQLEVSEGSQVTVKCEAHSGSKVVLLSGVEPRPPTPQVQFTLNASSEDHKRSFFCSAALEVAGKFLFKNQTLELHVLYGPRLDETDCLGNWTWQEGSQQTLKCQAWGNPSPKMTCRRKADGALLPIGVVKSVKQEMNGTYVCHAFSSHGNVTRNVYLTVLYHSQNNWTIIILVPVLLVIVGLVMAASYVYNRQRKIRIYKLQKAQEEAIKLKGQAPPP

T1 sequence (P05362 28-532): as the sequence (P05362 28-532) above

B1: R6.5 (mouse anti-human ICAM-1 monoclonal antibody from hybridoma; scFv derived from it) (antibody, V domains shown)
VH: QVQLQQSGPELVRPGVSVKISCKGSGYTFIDYAIHWVKESHAKSLEWIGVISAYSGDTNYNQKFKGKATMTVDKSSNTAYLELARLTSEDSAIYYCARGGWLLLSFDYWGQGTTLTVSS
VL: DVVMTQSPLSLPVSLGDQASISCRSSQSLVHSNGNNYLHWYLQKSGQAPKLLIYKVSNRFSGVPDRFSGSGSGTDFTLKISRVEAEDLGVYFCSQSTHVPLTFGGGTKLEIK
Q: With B1 as the binder, how does the Kd [1] read?
A: Its Kd is 0.01 µM.

B2: Wild-type (WT) LFA-1 I domain (receptor)
chain: GNVDLVFLFDGSMSLQPDEFQKILDFMKDVMKKLSNTSYQFAAVQFSTSYKTEFDFSDYVKWKDPDALLKHVKHMLLLTNTFGAINYVATEVFREELGARPDATKVLIIITDGEATDSGNIDAAKDIIRYIIGIGKHFQTKESQETLHKFASKPASEFVKILDTFEKLKDLFTELQKKIYVIEG
notes: I domain of the αL subunit of human LFA-1; also called WT I domain; wild-type human I domain
Q: How did the Kd [2] turn out when B2 was run?
A: Its Kd is 1500 µM.

B3: F292S LFA-1 I domain (receptor)
chain: GNVDLVFLFDGSMSLQPDEFQKILDFMKDVMKKLSNTSYQFAAVQFSTSYKTEFDFSDYVKWKDPDALLKHVKHMLLLTNTFGAINYVATEVFREELGARPDATKVLIIITDGEATDSGNIDAAKDIIRYIIGIGKHFQTKESQETLHKFASKPASEFVKILDTSEKLKDLFTELQKKIYVIEG
Q: How did the Kd [3] turn out when B3 was run?
A: Its Kd is 1.24 µM.

B4: F265S/F292G (DM) LFA-1 I domain (receptor)
chain: GNVDLVFLFDGSMSLQPDEFQKILDFMKDVMKKLSNTSYQFAAVQFSTSYKTEFDFSDYVKWKDPDALLKHVKHMLLLTNTFGAINYVATEVFREELGARPDATKVLIIITDGEATDSGNIDAAKDIIRYIIGIGKHSQTKESQETLHKFASKPASEFVKILDTGEKLKDLFTELQKKIYVIEG
Q: For B4, which “fold higher affinity than the wild-type (WT) I domain” value [4] is on record?
A: Its value is about 200000 fold.

Q: What about the Kd [2] of the same binder?
A: The Kd was 0.006 µM.

Q: And the Kd (murine ICAM-1 (SPR))?
A: Its Kd is 0.002 µM.

B5: I309T LFA-1 I domain (receptor)
chain: GNVDLVFLFDGSMSLQPDEFQKILDFMKDVMKKLSNTSYQFAAVQFSTSYKTEFDFSDYVKWKDPDALLKHVKHMLLLTNTFGAINYVATEVFREELGARPDATKVLIIITDGEATDSGNIDAAKDIIRYIIGIGKHFQTKESQETLHKFASKPASEFVKILDTFEKLKDLFTELQKKIYVTEG
Q: B5 was tested. Which Kd [3] did it give?
A: The Kd was 127 µM.

B6: I288N LFA-1 I domain (receptor)
chain: GNVDLVFLFDGSMSLQPDEFQKILDFMKDVMKKLSNTSYQFAAVQFSTSYKTEFDFSDYVKWKDPDALLKHVKHMLLLTNTFGAINYVATEVFREELGARPDATKVLIIITDGEATDSGNIDAAKDIIRYIIGIGKHFQTKESQETLHKFASKPASEFVKNLDTFEKLKDLFTELQKKIYVIEG
Q: Which Kd [3] does the source give for B6 here?
A: The Kd was 202 µM.

B7: F292A LFA-1 I domain (receptor)
chain: GNVDLVFLFDGSMSLQPDEFQKILDFMKDVMKKLSNTSYQFAAVQFSTSYKTEFDFSDYVKWKDPDALLKHVKHMLLLTNTFGAINYVATEVFREELGARPDATKVLIIITDGEATDSGNIDAAKDIIRYIIGIGKHFQTKESQETLHKFASKPASEFVKILDTAEKLKDLFTELQKKIYVIEG
Q: Which results are given for B7?
A: time (hours) to 50% killing, 8505C target cells [5]: 41.5 h; time (hours) to 50% killing, 8505C/LPS target cells [5]: 30.8 h; time (hours) to 50% killing, HeLa target cells [5]: 18.7 h; fold lower affinity than the scFv-based R6.5 CAR [6]: > 1000 fold; Kd [2]: 20 µM

B8: F265S LFA-1 I domain (receptor)
chain: GNVDLVFLFDGSMSLQPDEFQKILDFMKDVMKKLSNTSYQFAAVQFSTSYKTEFDFSDYVKWKDPDALLKHVKHMLLLTNTFGAINYVATEVFREELGARPDATKVLIIITDGEATDSGNIDAAKDIIRYIIGIGKHSQTKESQETLHKFASKPASEFVKILDTFEKLKDLFTELQKKIYVIEG
Q: Which Kd [2] does the source give for B8 here?
A: The Kd was 0.145 µM.

B9: F292G LFA-1 I domain (receptor)
chain: GNVDLVFLFDGSMSLQPDEFQKILDFMKDVMKKLSNTSYQFAAVQFSTSYKTEFDFSDYVKWKDPDALLKHVKHMLLLTNTFGAINYVATEVFREELGARPDATKVLIIITDGEATDSGNIDAAKDIIRYIIGIGKHFQTKESQETLHKFASKPASEFVKILDTGEKLKDLFTELQKKIYVIEG
Q: Which time (hours) to 50% killing, 8505C target cells [5] does the source give for B9 here?
A: The time (hours) to 50% killing, 8505C target cells was 27.3 h.

Q: And the time (hours) to 50% killing, 8505C/LPS target cells [5]?
A: Its time (hours) to 50% killing, 8505C/LPS target cells is 24 h.

Q: What about the time (hours) to 50% killing, HMEC target cells [5] of the same binder?
A: Its time (hours) to 50% killing, HMEC target cells is 21.1 h.

Q: And the time (hours) to 50% killing, HeLa target cells [5]?
A: Its time (hours) to 50% killing, HeLa target cells is 14.9 h.

Q: And the time (hours) to 50% killing, bEND3 target cells [7]?
A: The time (hours) to 50% killing, bEND3 target cells was 16.2 h.

Q: And the Kd [2]?
A: The Kd was 0.119 µM.

B10: L295A LFA-1 I domain (receptor)
chain: GNVDLVFLFDGSMSLQPDEFQKILDFMKDVMKKLSNTSYQFAAVQFSTSYKTEFDFSDYVKWKDPDALLKHVKHMLLLTNTFGAINYVATEVFREELGARPDATKVLIIITDGEATDSGNIDAAKDIIRYIIGIGKHFQTKESQETLHKFASKPASEFVKILDTFEKAKDLFTELQKKIYVIEG
Q: With B10 as the binder, how does the Kd [3] read?
A: Its Kd is 37 µM.

B11: L289G LFA-1 I domain (receptor)
chain: GNVDLVFLFDGSMSLQPDEFQKILDFMKDVMKKLSNTSYQFAAVQFSTSYKTEFDFSDYVKWKDPDALLKHVKHMLLLTNTFGAINYVATEVFREELGARPDATKVLIIITDGEATDSGNIDAAKDIIRYIIGIGKHFQTKESQETLHKFASKPASEFVKIGDTFEKLKDLFTELQKKIYVIEG
Q: B11 was tested. Which Kd [3] did it give?
A: The Kd was 0.196 µM.

B12: TM (F265S/F292G/G311C) I domain CAR (receptor, part only; not given: Tag, hinge, transmembrane and signaling domains, not shown: another chain or arm of the molecule; a dimerising Fc or GST; small tags and cut ends)
chain: ECIKGNVDLVFLFDGSMSLQPDEFQKILDFMKDVMKKLSNTSYQFAAVQFSTSYKTEFDFSDYVKWKDPDALLKHVKHMLLLTNTFGAINYVATEVFREELGARPDATKVLIIITDGEATDSGNIDAAKDIIRYIIGIGKHSQTKESQETLHKFASKPASEFVKILDTGEKLKDLFTELQKKIYVIECTS
modifications: Disulfide bond between Cys-125 (chain position 2) and the introduced Cys-311 (chain position 188), per paragraph 45.
Q: For B12, which time (hours) to 50% killing, 8505C target cells [5] is on record?
A: Its time (hours) to 50% killing, 8505C target cells is 17.1 h.

Q: And the time (hours) to 50% killing, 8505C/-ICAM-1 target cells [5]?
A: Its time (hours) to 50% killing, 8505C/-ICAM-1 target cells is 32.6 h.

Q: And the time (hours) to 50% killing, 8505C/LPS target cells [5]?
A: The time (hours) to 50% killing, 8505C/LPS target cells was 15.1 h.

Q: And the time (hours) to 50% killing, HMEC target cells [5]?
A: Its time (hours) to 50% killing, HMEC target cells is 13.4 h.

Q: What about the time (hours) to 50% killing, HeLa target cells [5] of the same binder?
A: The time (hours) to 50% killing, HeLa target cells was 10.8 h.

Q: What about the time (hours) to 50% killing, bEND3 target cells [7] of the same binder?
A: Its time (hours) to 50% killing, bEND3 target cells is 13 h.

B13: F265S/F292G/G311C (TM) LFA-1 I domain (receptor)
chain: ECIKGNVDLVFLFDGSMSLQPDEFQKILDFMKDVMKKLSNTSYQFAAVQFSTSYKTEFDFSDYVKWKDPDALLKHVKHMLLLTNTFGAINYVATEVFREELGARPDATKVLIIITDGEATDSGNIDAAKDIIRYIIGIGKHSQTKESQETLHKFASKPASEFVKILDTGEKLKDLFTELQKKIYVIECTS
modifications: disulfide bond between Cys-311 (G311C) and naturally unpaired Cys-125
notes: also called triple mutant
Q: For B13, which Kd [2] is on record?
A: The Kd was about 0.001 µM.
